We go through three molecules from patent publication US20210277441A1, “METHOD OF SELECTING A POLYPEPTIDE OF INTEREST” (IMPERIAL COLLEGE INNOVATIONS LIMITED, priority 2018, published 2021).

Numbering of substitutions follows the chain as printed. Names and notes keep the numbering of the source.

The test system of one test is AL cells. The test can be described thus: 1H NMR analysis of fermentation broth of anaerobic cultures. Details: Substrate concentration: unit not given here. It is filed as cell-based, Escherichia coli.
The nature of test [1]: Kinetics of evolved and parental enzymes, 2-methylpyrroline as variable substrate. It is filed as biochemical. The note with it: reductase activity towards 2-methylpyrroline.
Test [2] deals with LS1 strain (ΔadhE ΔldhA double mutant) cells. Briefly: Metabolic complementation (anaerobic growth recovery) of LS1/AL strain. The format is cell-based, Escherichia coli. Here is the method: (§1) The LS1 mutant strain and the parental BW25113 strain were transformed with the desired plasmid and overnight pre-cultures were grown aerobically in 15 mL Falcon tubes with M9 media (0.4% glucose). These pre-cultures were used to inoculate 10 mL Hungate tubes with M9 medium (0.4% glucose) supplemented with 100 μg/mL ampicillin, 1 mM IPTG and with or without the specific substrate of the dehydrogenase under anaerobic conditions at 37° C. Metabolic complementation was assessed by measuring the optical density at 600 nm every two hours during daytime.

Test [3] concerns triple mutants (adhE, ldhA and one transhydrogenase gene knocked out). Briefly: Metabolic complementation of triple mutants. The format is cell-based, E. coli. The note with it: any of the triple mutants. The source says:
As LS1 (ΔadhE-ΔldhA double mutant) was able to grow when transformed with an NADPH-dependent oxidoreductase (wild type CBADH), the inventors generated two triple mutants where, in addition to adhE and ldhA, one transhydrogenase gene was deleted in each. Transhydrogenases catalyse the direct transfer of electrons from NADH to NADP+ and from NADPH to NAD+, in the following reaction: NADH+NADP^+=NAD^++NADPH. Without wishing to be bound to any particularly theory, the inventors hypothesized the activity of these transhydrogenases is what makes the system able to restore anaerobic growth when transformed with enzymes that generate NADP+. Two triple mutants, where one transhydrogenase gene was knocked out in addition to adhE and ldhA, were generated, since there are 2 transhydrogenase genes in E. coli: • sthA (soluble transhydrogenase) • pntA (transmembrane transhydrogenase).

In the next test the test system is LS5 strain. Briefly: Metabolic complementation (anaerobic growth) of quadruple mutant. It is filed as cell-based, Escherichia coli. Here is the method: as §1
Since in the triple mutants the non-deleted transhydrogenase could still be supporting anaerobic growth under anaerobic fermentation conditions when complemented with an NADPH-dependent oxidoreductase by generating oxidized NAD, the inventors generated a quadruple mutant where adhE, ldhA, sthA and pntA genes were deleted (LS5 strain, FIG. 11).

A short description of test [4]: Enzymatic activity assays with purified enzyme, reduction of acetone. It is filed as biochemical.
Test [5] can be described thus: Enzymatic activity assays with purified enzyme, oxidation of isopropanol. The format is biochemical.
The next test deals with LS1 strain cells. Briefly: GC analysis of fermentation broth. The format is cell-based, Escherichia coli. The note with it: anaerobic, media supplemented with acetone.
The mark [6] stands for this setting: exogenous substrate 2-methyl-1-pyrroline.
The mark [7] stands for this setting: exogenous substrate acetone, product isopropanol.

B1: MsIRED-s: MsIRED variant with N32E, R33V, T34R and K37R, NADH-dependent (protein)
chain: MKPTLTVIGAGRMGSALIKAFLQSGYTTTVWEVRKARSEPLAKLGAHLADTVRDAVKRSDIIVVNVLDYDTSDQLLRQDEVTRELRGKLLVQLTSGSPALAREQETWARQHGIDYLDGAIMATPDFIGQAECALLYSGSAALFEKHRAVLNVLGGATSHVGEDVGHASALDSALLFQMWGTLFGTLQALAISRAEGIPLEKTTAFIKLTEPVTQGAVADVLTRVQQNRLTADAQTLASLEAHNVAFQHLLALCEERNIHRGVADAMYSVIREAVKAGHGKDDFAILTRFLK
modifications: variant of Myxococcus stipitatus imine reductase
notes: MsIRED variant with N32E, R33V, T34R and K37R, NADH-dependent
In the test on AL cells (setting [6]), B1 showed an Acetate concentration of 15.9, an Ethanol concentration of 0, a Formate concentration of 12.8 and a Lactate concentration of 0. In the test on AL cells (setting [6]), the Substrate concentration is listed as 0.8 and the Succinate concentration turned out to be 2. In the test with AL cells (exogenous substrate 2-methyl-1-pyrroline, product 2-methylpyrrolidine), this molecule displayed a Product concentration of 13.4. For the same molecule, the “activity with NADPH” value in test [1] was “no activity was detected”. Further, the “anaerobic growth compared with best variant of previous studies” value in test [2] (media supplemented with 2-methylpyrroline) is “more efficiently”.

B2: Clostridium beijerinckii alcohol dehydrogenase (protein, listed as Clostridium beijerinckii)
chain: MKGFAMLGINKLGWIEKERPVAGSYDAIVRPLAVSPCTSDIHTVFEGALGDRKNMILGHEAVGEVVEVGSEVKDFKPGDRVIVPCTTPDWRSLEVQAGFQQHSNGMLAGWKFSNFKDGVFGEYFHVNDADMNLAILPKDMPLENAVMITDMMTTGFHGAELADIQMGSSVVVIGIGAVGLMGIAGAKLRGAGRIIGVGSRPICVEAAKFYGATDILNYKNGHIVDQVMKLTNGKGVDRVIMAGGGSETLSQAVSMVKPGGIISNINYHGSGDALLIPRVEWGCGMAHKTIKGGLCPGGRLRAEMLRDMVVYNRVDLSKLVTHVYHGFDHIEEALLLMKDKPKDLIKAVVIL
In the test with AL cells (exogenous substrate acetone), B2 displayed an Acetate concentration of 8.1, an Ethanol concentration of 0, a Formate concentration of 5.8 and a Lactate concentration of 0. In addition, in the test with AL cells (exogenous substrate acetone), the Substrate concentration is given as 0.1 and the Succinate concentration worked out at 1.1. In the test on AL cells (setting [7]), this molecule returned a Product concentration of 10.8. Also, the anaerobic growth entry in test [3] is reported as “still able to grow anaerobically”. Besides, the “time after which growth recovery was observed” value in test [2] (LS1 cells cultured anaerobically, media supplemented with acetone) worked out at 55 h. Also, the anaerobic growth result with LS5 strain (media supplemented with acetone or not) was “anaerobic growth is not restored”.

B3: CBADH-s: CBADH variant with substitutions G198D, S199Y and Y218P, uses NADH instead of NADPH (protein)
chain: B2 chain with G198D, S199Y, Y218P
modifications: amino acid variant of CBADH
notes: CBADH variant with substitutions G198D, S199Y and Y218P, uses NADH instead of NADPH
B3: in the test on AL cells (exogenous substrate acetone), the Acetate concentration amounted to 13, the Ethanol concentration came to 0, the Formate concentration amounted to 9.9 and the Lactate concentration is 0. In the test on AL cells (exogenous substrate acetone), the Substrate concentration is listed as 0.5 and the Succinate concentration stood at 1.1. This molecule yielded a Product concentration in the test with AL cells (setting [7]) of 12.7. In test [4] (reduction of acetone to isopropanol, NADH as the cofactor, purified enzyme), the “increase in activity compared to the wild type” value was determined as 4.6 fold. Moreover, in test [4] (reduction reaction), the “activity with NADP(H) as the cofactor” value is “no significant activity”. The “increase in activity compared to the wild type” value in test [5] (oxidation of isopropanol to acetone, NAD+ as the cofactor, purified enzyme) was “io”. Also, in test [5] (oxidation reaction), the “activity with NADP(H) as the cofactor” value is recorded as “no significant activity”. Also, the “isopropanol in fermentation broth compared with pLS6” value in the test on LS1 strain cells is “much higher levels”. Further, the anaerobic growth recovery entry in test [2] (LS1, media supplemented with acetone) is “allowed growth recovery”. Also, the anaerobic growth entry in the test on LS5 strain (media supplemented with acetone) is recorded as “anaerobic growth is restored”.
